Reference: patent US20110195068A1, “PD-1 ANTAGONISTS AND METHODS OF USE THEREOF” (priority 2008, published 2011)

Legend:
[1] = tested on: CT26 colorectal tumor cells; details: CTX 100 mg/kg alone, day 10; all mice in the group
Description: Mouse colorectal tumor cell line, CT26, was obtained from ATCC. A master cell bank at Passage 4 was generated following ATCC guidelines.
One vial of tumor cells was thawed from the cryopreserved stocks and grown for two passages prior to inoculation.
CT26 cells were split at 1:5 dilution with 30 mL complete medium (RPMI+10% FBS, 2 mM L-Glu, and 1×P/S) for two days culture or at 1:10 dilution with 30 ml complete medium for 3 days culture.
CT26 cells were harvested by aspirating medium, rinsing the flask with 5 mL PBS, adding 5 mL trypsin, incubating at 37° C. for 2 min, and then neutralizing with 10 mL complete medium. After centrifuge at 600×g (˜1000 rpm) for 5 min, media was aspirated and the cell pellet was resuspended by pipetting with 10 ml plain RPMI. This wash step was repeated for three times.
Cell number and viability of the inoculated cells were analyzed by trypan blue dye staining with proper dilution (e.g. 1:5 dilution, 10 μL cells+40 μL trypan blue) and confirmed by NOVA cell count during the last wash step.
On Day 9, all the tumor-bearing mice were first grouped into a rat cage and randomly divided the mice to experimental groups. CTX solution was reconstituted by 1×PBS to 4 mg/mL. Mice were intraperitoneally (IP) injected with 0.5 mL of CTX solution resulting in 2 mg for a 20 gram mouse, i.e. 100 mg/kg.
The same dose was given 2 time a week for 4 weeks, total 8 doses.

[2] = biological target: T1, recombinant human PD-1/Fc (Homo sapiens, UniProt Q15116); test: PD-1 binding ELISA, human B7-DC-Ig; details: plates coated with recombinant human PD-1/Fc, four different lots, FIG. 1A
T1 construct: Fc; purchased R&D Systems
T1 sequence (Q15116 with tags, fused parts or gaps limits assumed): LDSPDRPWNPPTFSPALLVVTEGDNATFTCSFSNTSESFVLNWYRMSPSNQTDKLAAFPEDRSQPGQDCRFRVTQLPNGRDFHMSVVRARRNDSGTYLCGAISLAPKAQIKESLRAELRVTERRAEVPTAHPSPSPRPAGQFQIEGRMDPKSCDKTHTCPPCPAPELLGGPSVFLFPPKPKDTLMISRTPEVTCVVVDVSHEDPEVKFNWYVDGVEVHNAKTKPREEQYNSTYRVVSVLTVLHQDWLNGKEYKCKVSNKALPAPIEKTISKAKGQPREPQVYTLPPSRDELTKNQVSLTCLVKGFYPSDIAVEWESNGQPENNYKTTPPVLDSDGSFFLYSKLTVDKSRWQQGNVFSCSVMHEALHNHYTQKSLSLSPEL
Description: (§1) 96-well ELISA plates were coated with 100 μL 0.75 ug/mL recombinant human PD-1/Fc (R&D Systems) diluted in BupH Carbonate/Bicarbonate pH 9.4 buffer (Pierce) for 2 hours and then blocked with BSA solution (Jackson ImmunoResearch) for 90-120 minutes. […] Absorbance at 450 nm was read using a plate reader (Molecular Devices) and data were analyzed in SoftMax using a 4-parameter logistic fit.

[3] = biological target: T2, recombinant mouse PD-1/Fc (Mus musculus, UniProt Q02242); test: PD-1 binding ELISA, murine B7-DC-Ig; details: plates coated with recombinant mouse PD-1/Fc, compared with wild type, FIG. 1B
T2 construct: Fc; purchased R&D Systems
T2 sequence (Q02242 with tags, fused parts or gaps limits assumed): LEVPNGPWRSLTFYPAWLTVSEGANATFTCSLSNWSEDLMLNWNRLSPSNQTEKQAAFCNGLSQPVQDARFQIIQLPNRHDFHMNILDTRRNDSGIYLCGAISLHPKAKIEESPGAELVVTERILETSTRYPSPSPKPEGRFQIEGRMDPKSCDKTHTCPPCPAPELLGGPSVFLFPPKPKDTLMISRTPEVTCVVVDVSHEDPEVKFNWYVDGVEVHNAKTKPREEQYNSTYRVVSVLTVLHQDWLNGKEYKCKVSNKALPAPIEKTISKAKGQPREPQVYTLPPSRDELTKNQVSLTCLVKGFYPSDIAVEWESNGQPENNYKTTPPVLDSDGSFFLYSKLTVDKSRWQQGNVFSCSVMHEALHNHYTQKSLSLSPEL
Description: as §1, with “mouse” for “human”, “(Candor-Bioscience)” for “(Jackson ImmunoResearch)”, “90” for “90-120”

[4] = tested on: P815 mastocytoma cells; test: P815 mastocytoma tumor model; type: in vivo, DBA/2 mice
Description: P815 mastocytoma cells were derived from DBA/2 mice after methylcholanthrene (MCA) treatment. Injection of 5×10^4 cells SC can result in mortality approximately 35 days post tumor inoculation.
DBA/2 mice (6-10 weeks of age, females) were first challenged with 5×10^4 live P815 cells injected SC in the flank. Six days later, the mice were treated with murine B7-DC-Ig via IP injection. […] Control groups were treated with vehicle only or with murine IgG. Tumor size was measured with digital calipers every 2-3 days. Mice were euthanized and defined as dead when their tumor size reached or exceeded 1000 mm^3, according to protocols approved by the Institutional Animal Care and Use Committee (IACUC) of the American Red Cross (ARC; the site of Amplimmune's vivarium). Surviving tumor free mice were re-challenged with P815 tumor cells on Day 52.
The tumor-free mice were then re-challenged with 5×10^4 P815 cells administered to the flank opposite the primary inoculation site on Day 52.

[5] = tested on: more aggressive, less immunogenic tumor types; test: Activity against more aggressive, less immunogenic tumor types; type: in vivo; details: single agent
[6] = 100 ug per injection IP, 2 times per week, up to 6 doses
[7] = 5 mice per group, 5 mg/kg IP biw 3 weeks starting Day 6

With `O=P1(N(CCCl)CCCl)NCCCO1` (stereo not shown) [CTX, cyclophosphamide] the “outcome of mice with established tumors” value [1] was “died as a result of tumor growth or were euthanized”.

In the case of “B7-DC-Ig: human PD-L2 (B7-DC) extracellular domain fused to hinge, CH2 and CH3 of human immunoglobulin Cγ1 chain (SEQ ID NO:56/57)”, the “PD-1 binding activity (OD450)” value [2] is reported as “binding”.

In the case of “D111S: murine B7-DC-Ig with the D111S substitution”, the “PD-1 binding activity (OD450)” value [3] is reported as “reduced binding to PD-1”.

For “K113S: murine B7-DC-Ig with the K113S substitution”, the “PD-1 binding activity (OD450)” value [3] was “reduced binding to PD-1”.

B1: Murine B7-DC-Ig: murine PD-L2 (B7-DC) extracellular domain fused to hinge, CH2 and CH3 of murine immunoglobulin Cγ2a chain (SEQ ID NO:53/54) (protein, listed as Mus musculus)
chain: LFTVTAPKEVYTVDVGSSVSLECDFDRRECTELEGIRASLQKVENDTSLQSERATLLEEQLPLGKALFHIPSVQVRDSGQYRCLVICGAAWDYKYLTVKVKASYMRIDTRILEVPGTGEVQLTCQARGYPLAEVSWQNVSVPANTSHIRTPEGLYQVTSVLRLKPQPSRNFSCMFWNAHMKELTSAIIDPLSRMEPKVPRTWEPRGPTIKPCPPCKCPAPNLLGGPSVFIFPPKIKDVLMISLSPIVTCVVVDVSEDDPDVQISWFVNNVEVHTAQTQTHREDYNSTLRVVSALPIQHQDWMSGKEFKCKVNNKDLPAPIERTISKPKGSVRAPQVYVLPPPEEEMTKKQVTLTCMVTDFMPEDIYVEWTNNGKTELNYKNTEPVLDSDGSYFMYSKLRVEKKNWVERNSYSCSVVHEGLHNHHTTKSFSRTPGK
B1 was tested, and the “mice in which tumor was eradicated” value [4, 6] was “two”, the “mice responded to treatment” value [4, 6] was “Four of 5” and the “mice with delayed tumor growth during treatment” value [4, 6] was “two”. For the same molecule, the “# Tumor <500 mm^3” value [4, 7] was 2, the “# Tumor free” value [4, 7] was 2 and the “# Tumor ≧500 mm^3” value [4, 7] was 1. The “outcome of re-challenge of tumor-free mice” value ([4]; re-challenged with 5×10^4 P815 cells on Day 52, opposite flank, through 74 days after primary inoculation) was “remained tumor free”, the “anti-tumor activity alone in the P815 model” value ([4]; single agent) was “effective” and the “anti-tumor activity alone against more aggressive, less immunogenic tumor types” value [5] was “minimal activity”.
